{"source": "patent US6870041B1", "about": "“MurE protein and gene of pseudomonas aeruginosa” (priority 1999, dated 2005)", "molecules": {"B1": {"name": "UDP-N-acetylmuramoyl-L-alanyl-D-glutamate:meso-2,6-diaminopimelate ligase (protein, listed as Pseudomonas aeruginosa)", "chain": "MPMSLSQLFPQAERDLLIRELTLDSHGVRPVDLFLTVPGGHQDGRAHIADALTKGATAVAYEAEGAGELPPSDAPLIAVKGLAAQLSAVAGRFYGEPSRGLDLIGVTGTNGKTSVSQLVAQALDLLGERCGIVGTLGTGFYGALESGRHTTPDPLAVQATLATLKQAGARAVAMEVSSHGLDQGRVAALGFDIAVFTNLSRDHLDYHGSMEAYAAAKAKLFAWPDLRCRVINLDDDFGRRLAGEEQDSELITYSLTDSSAFLYCREARFGDAGIEAALVTPHGEGLLRSPLLGRFNLSNLLAAVGALLGLGYPLGDILRTLPQLQGPVGRMQRLGGGGKPLVVVDYAHTPDALEKVLEALRPHAAARLLCLFGCGGDRDAGKRPLMAAIAERLADEVLVTDDNPRTEASAAIIADIRKGFAAADKVTFLPSRGEAIAHLIASAAVDDVVLLAGKGHEDYQEIDGVRHPFSDIEQAERALAAWEVPHA", "modifications": "His tag"}}, "key": {"P. aeruginosa MurE": {"molecular_target": "T1, P. aeruginosa MurE (Pseudomonas aeruginosa, UniProt Q59650)", "T1 construct": "6xHis (pET-15b) (N); made in house; host or cells: E. coli BL21(DE3)/pLysS, plasmid pPaeMurE (pET-15b)", "T1 sequence (Q59650 whole entry, looked up)": "B1 chain with S6N, H26R, V31G, T36A, H41R, T53A, T57A, D225G, G338D", "experiment": "ATP-dependent MurE activity, pyruvate kinase/lactate dehydrogenase coupled enzyme assay (ADP formation)", "format": "biochemical", "settings": "recombinant MurE from P. aeruginosa; 25° C., pH 8.0; ADP formed per min per mg", "method": "(§1) The ATP-dependent MurE activity was assayed by monitoring the formation of product ADP using the pyruvate kinase and lactate dehydrogenase coupled enzyme assay. The reaction was monitored spectrophotometrically.\n(§2) Typically, the assay contained 100 mM BIS-TRIS-propane, pH 8.0, 200 μM NADH, 1 mM ATP, 20 mM PEP, 5 mM MgCl2, 1 mM DTT, 350 μM UDP-N-acetyl-muramyl-L-alanine-D-Glutamine, 1 mM m-Dap, 33 units/ml of pyruvate kinase and 1660 units/ml of lactate dehydrogenase in a final volume of 200 or 400 μl. The mixture was incubated at 25° C. for 5 min and the reaction initiated by the addition of 1-10 μg of MurE. These conditions are one example of an assay useful for evaluating the activity of MurE. Other assays can be used, or amounts of buffers, substrate and enzyme can be changed, as desired, to alter the rate of production of ADP.\n(§3) ADP formation was monitored by the decrease in absorbance at 340 nm as a function of time using a MOLECULAR DEVICES SPECTRAMAXPLUS™ microtiterplate spectrophotomer (for 200 μl assays) or a HEWLETT-PACKARD HP8452A spectrophotometer equipped with a circulating water bath (for 400 μl assays). Rates were calculated from the linear portions of the progress curves using the extinction coefficient for NADH, e=6220 cm^−1 M-1. One unit of MurE activity is equal to 1 μmol of ADP formed per min at 25° C."}, "E. coli MurE": {"molecular_target": "T2, E. coli MurE (Escherichia coli, UniProt P22188)", "T2 sequence (P22188 whole entry, looked up)": "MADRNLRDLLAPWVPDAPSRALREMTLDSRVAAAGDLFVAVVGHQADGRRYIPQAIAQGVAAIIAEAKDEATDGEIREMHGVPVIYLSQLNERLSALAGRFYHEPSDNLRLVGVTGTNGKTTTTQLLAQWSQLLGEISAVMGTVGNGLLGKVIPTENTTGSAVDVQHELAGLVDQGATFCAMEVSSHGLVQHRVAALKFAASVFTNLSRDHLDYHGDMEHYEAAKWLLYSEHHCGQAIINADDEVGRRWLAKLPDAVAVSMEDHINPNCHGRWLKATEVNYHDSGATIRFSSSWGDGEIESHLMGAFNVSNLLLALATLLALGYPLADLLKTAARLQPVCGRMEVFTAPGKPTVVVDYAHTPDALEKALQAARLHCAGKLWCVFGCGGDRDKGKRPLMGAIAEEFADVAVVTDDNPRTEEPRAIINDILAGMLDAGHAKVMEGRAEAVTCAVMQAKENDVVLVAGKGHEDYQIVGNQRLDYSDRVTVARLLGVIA", "experiment": "ATP-dependent MurE activity, pyruvate kinase/lactate dehydrogenase coupled enzyme assay (ADP formation)", "format": "biochemical", "settings": "recombinant MurE from E. coli; 25° C., pH 8.0; ADP formed per min per mg", "method": "as §1, §2, §3"}}, "note": "Residue numbers refer to the chain shown, from its start.", "data": [{"molecule": "B1", "values": [{"measurement": "Specific activities of recombinant MurE, P. aeruginosa", "setting": "P. aeruginosa MurE", "result": 3.31, "unit": "µmol/min/mg"}, {"measurement": "Specific activities of recombinant MurE, E. coli", "setting": "E. coli MurE", "result": 0.68, "unit": "µmol/min/mg"}]}]}
